# Experimental data taken from patent CN113185608A.
# Changes are numbered by the printed parent chain.
# B1: 1H10+3λ5 (antibody, V domains shown)
# VH: EVQLVQSGGGLVQPGGSLRLSCAASVEAFSTYWMNWVRQAPGKGLEWVANINRDGSQKYYVDSVEGRFTISRDNAKSSLYLQMNSLRADDTAVYYCMSGYDSGHWGQGSLVTVSS
# VL: SQAVVTQEPSLTVSPGGTVTLTCGSSTGAVTSGLYAYWFQQKPGQVPRTLSTGAVIYNISNKQSWTPARFSGSLLGGKAALTLSGAQPEDEADYYCLLSYSRTRVFGGGTKLTVLG
# B2: 1H16+3λ7 (antibody, V domains shown)
# VH: B1 VH with Q6E, V26G, E27F, A28T
# VL: SQAVVTQEPSLTVSPGGTVTLTCGSSTGAVTSGLYAYWTVTFQQKPGQVPRTLIYNISNKQSWTPARFSGSLLGGKAALTLSGAQPEDEADYYCLLSYSRTRVFGGGTKLTVLG
# B3: 1H18+3λ10 (antibody, V domains shown)
# VH: EVQLVQSGGGLVQPGGSLRLSCAASGFTFSTYWMNWVRLSQTPGKGLEWVANINRDGSQKYYVDSVEGRFTISRLSDNAKSSLYLQMNSLRADDTAVYYCMSGYDSGHWGQGSTVTVSS
# VL: SQTVVTQEPSLTVSPGGTVTLTCGSSTGAVTSGLYAQQKPGQVPRTLIYNISNKQSWTPARFSGSLLGGKAALTLSGAQPEDEADYYCLLSYSRTRVFGGGTKLTVLG
# B4: 1H17+3λ8 (antibody, V domains shown)
# VH: EVQLLESGGGLVQPGGSLRLSCAASGFTFSTYWMNWVRQAPGKGLEWVANRDGSQKYYVDSVEGRFTISRDNAKSSLYLQMNSLRADDTAVYYCMSGYDSGHWGQGSTVTVSS
# VL: ANFMLTQEPSLTVSPGGTVTLTCGSSTGAVTSGLYAYWFQQKPGQVPRTLIYNISNKQSWTPARFSGSLLGGKAALTLSGPEDEADYYCLLSYSRTRVFGGGTKLTVLG
# B5: 1H3+3λ1 (antibody, V domains shown)
# VH: VHSQVQLVESGGGVVQPGRSLRLSCAASGFTFSSYAMHWVRQAPGKGLEWVAVISYDGNKYYADSVKGRFTISRDNSKNTLYLQMNSLRDEDTAVYYCARAPDCSGGSCSTEYFQHWGQGTLVTVSS
# VL: SWAQSVLTQEPSLTVSPGGTVTLTCGSSTGAVTSGLYAYWFQQKPGQVPRTLIYNISNKQSWTPARFSGSLLGGKAALTLSGAQPEDEADYYCLLSYSRTRVFGTKLTVLGQPKAAPSVTLFP
# Target: 狂犬病毒糖蛋白(Glycoprotein，GP) (Rabies virus (RABV))
# Assay: ELISA of HEK293T transfection supernatant
row,Binder,OD (ELISA) [OD]
1,B1,> 1.1
2,B2,> 1.1
3,B3,> 1.1
4,B4,> 1.1
5,B5,> 1.1
